Assay results from patent US20190211082A1.

Tests used:
[1] = target: Fab fragment (IgG-Fab) derived from anti-IgE monoclonal antibody Omalizumab ("Xolair" manufactured by Novartis AG), made by papain digestion; assay: affinity chromatography, 1 mg Fab on 1 mL column, linear pH gradient 5.0 to 2.4 in 100 mM citrate buffer, pH at elution peak top, 25 °C
[2] = target: Fab fragment (IgG-Fab) derived from anti-IgE monoclonal antibody Omalizumab ("Xolair" manufactured by Novartis AG), made by papain digestion; assay: affinity chromatography, 1 mg Fab on 1 mL column, linear pH gradient 5.0 to 3.0 in 100 mM acetate buffer, pH at elution peak top, 25 °C
[3] = target: humanized monoclonal IgG (anti-IgE monoclonal antibody, "Xolair" manufactured by Novartis AG; generic name Omalizumab); assay: affinity chromatography, 1 mg IgG on 1 mL column, linear pH gradient 5.0 to 2.4 in 100 mM citrate buffer, pH at elution position
[4] = target: humanized monoclonal IgG (anti-IgE monoclonal antibody, "Xolair" manufactured by Novartis AG; generic name Omalizumab); assay: affinity chromatography, 1 mg IgG on 1 mL column, linear pH gradient 5.0 to 3.0 in 100 mM acetate buffer, pH at elution position

Antibody elution pH (100 mM citrate buffer) [1] [pH]	Antibody elution pH (100 mM acetate buffer) [2] [pH]	Antibody elution pH (100 mM citrate buffer) [3] [pH]	Antibody elution pH (100 mM acetate buffer) [4] [pH]	Substance
2.93	3.6	–	–	Protein L ligand of the commercially available affinity separation matrix "HiTrap Protein L 1 mL-gel" manufactured by GE Healthcare
–	–	3.53	3.64	Protein A ligand of the commercially available Protein A carrier "HiTrap MabSelect SuRe" manufactured by GE Healthcare
2.71	3.47	–	–	VL-κ-binding peptide of Experimental product A: 4 VL-κ-binding domains (SEQ ID NO: 2) of wild Protein L of Peptostreptococcus magnus 312 strain bound through the peptides that connect domains in SEQ ID NO: 1, with an active group for immobilization at the C-terminal (designed binder)
